Test [1] deals with T1, soluble Hendra virus G glycoprotein (sG) (Hendra virus, UniProt O89343 71-604).
T1 sequence: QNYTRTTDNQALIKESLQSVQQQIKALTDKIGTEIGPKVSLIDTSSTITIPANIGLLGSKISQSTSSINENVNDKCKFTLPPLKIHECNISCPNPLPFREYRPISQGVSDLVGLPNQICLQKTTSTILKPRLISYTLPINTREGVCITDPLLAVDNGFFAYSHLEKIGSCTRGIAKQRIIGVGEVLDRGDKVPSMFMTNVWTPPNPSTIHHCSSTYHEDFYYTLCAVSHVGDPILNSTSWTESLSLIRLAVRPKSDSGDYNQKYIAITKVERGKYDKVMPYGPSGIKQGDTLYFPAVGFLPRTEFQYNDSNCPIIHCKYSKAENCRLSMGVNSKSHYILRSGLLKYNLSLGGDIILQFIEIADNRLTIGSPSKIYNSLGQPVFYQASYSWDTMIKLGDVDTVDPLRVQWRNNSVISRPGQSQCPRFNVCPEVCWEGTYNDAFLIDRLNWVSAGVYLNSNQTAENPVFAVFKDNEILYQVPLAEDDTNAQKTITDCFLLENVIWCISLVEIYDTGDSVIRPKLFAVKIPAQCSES
Briefly: ELISA, purified soluble Fab on coated sG.

The target in test [2] is T2, HeV G envelope glycoprotein (on effector cells expressing HeV F and G, or on infectious HeV) (Hendra virus, UniProt O89343 1-604).
T2 sequence: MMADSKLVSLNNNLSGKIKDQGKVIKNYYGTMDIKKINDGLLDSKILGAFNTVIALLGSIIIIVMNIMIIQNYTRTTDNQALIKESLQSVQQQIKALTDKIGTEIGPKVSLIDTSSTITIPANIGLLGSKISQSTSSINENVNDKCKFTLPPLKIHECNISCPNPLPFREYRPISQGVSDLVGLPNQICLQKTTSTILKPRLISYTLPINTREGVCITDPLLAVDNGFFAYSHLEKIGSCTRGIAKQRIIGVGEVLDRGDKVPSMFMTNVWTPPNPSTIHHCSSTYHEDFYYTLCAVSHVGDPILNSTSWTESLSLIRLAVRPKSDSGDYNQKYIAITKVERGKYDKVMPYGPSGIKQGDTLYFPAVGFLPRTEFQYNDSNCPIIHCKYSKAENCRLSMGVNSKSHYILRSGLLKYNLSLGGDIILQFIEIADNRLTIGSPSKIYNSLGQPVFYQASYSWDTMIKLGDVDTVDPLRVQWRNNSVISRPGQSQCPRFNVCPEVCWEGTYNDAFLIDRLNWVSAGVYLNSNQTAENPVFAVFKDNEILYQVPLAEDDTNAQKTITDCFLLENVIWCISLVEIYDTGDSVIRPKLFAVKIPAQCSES
Put plainly: cell-based or functional assay.

For test [3], the target named is T1, soluble Hendra virus G glycoprotein (sG). Briefly: SPR (Biacore 1000), sG immobilised on CM5, Fab injected, 25 C, 1:1 Langmuir fit.
The target is the same in test [4].
The target is the same in test [5]. Put plainly: SPR (Biacore); upper end of the range told of the group, tied to m103 by Table 5.

Like-named read-outs stand apart in the source and are kept apart here.

B1: Fab m116 (Fab, V domains shown)
VH: EVQLVQSGAEVKKPGSSVKVSCKASGGAFSSYAISWVRQAPGQGLEWMGGIIPIFGTANYAQKFQGRVTITADESTSTAYMELSSLRSEDTAVYYCARDSAGLGAWGQGTLVAVSS
VL: DIQMTQSPSSLSASVGDRVTITCRASQGISSALAWYQQKPGKAPKLLIYDASSLESGVPSRFSGSGSGTDFTLTISSLQPEDFATYYCQQFNSYPLTFGQGTRLEIKR
For the molecule B1, the A450 in test [1] amounted to 0.3 A450.

B2: Fab m110 (Fab, V domains shown)
VH: EVQLVQSGGGLVQPGRSLRLSCAASGFTFDDYAMHWVRQAPGKGLEWVSAISGSGGSTYYADSVKGRFTISRDNSKNTLYLQMNSLRAEDTAVYYCASEGLPETDDAFDIWGQGTMVTVSS
VL: DVVMTQSPLSLPVTPGEPASISCRSSQSLLYSDGYNYLDWYLQKPGQSPQLLIYLGSRRASGVPDRFSGSGSGTDFTLKINTVEAEDVGVYYCMQGVEIPFTFGPGTKVEIKR
With B2, the A450 in test [1] amounted to 0 A450.

B3: Fab m109 (Fab, V domains shown)
VH: QMQLQQWGAGLLKPSETLSLTCAVYGGSFSGYYWSWIRQPPGKGLEWIGEINHSGSTNYNPSLKSRVTISVDTSKNQFSLKLSSVTAADTAVYYCARGWFRDWYFDLWGRGTLVTVSS
VL: DIQMTQSPSSLSASVGDRVTITCRASQDIRNDLGWYQQRPGKAPKLLIYAASSLQSGVPSRFSGSGSGTDFTLTISSLQPEDSATYFCLQDYQYPWTFGQGTKVEIKR
The molecule B3 showed an A450 in test [1] of 0 A450.

B4: Fab m115 (Fab, V domains shown)
VH: QVQLQQSGAEVKKPGSSVKVSCKASGGTFRSYAISWVRQAPGQGLEWMGGIIPIFGTANYAQKFQGRVTITADESTSTAYMELSSLRSEDTAVYYCARGSQSYDHYYYYGMDVWGQGTTVTVSS
VL: QSALTQPASVSGSPGQSITISCTGTSSDVGGYNYVSWYQQHPGKAPKLMIFDVSNRPSGVSNRLSGSKSGNTASLTISGLQAEDEADYYCSSYTSNTVVFGGGTKLTVL
Turning to B4, the A450 in test [1] was 0.4 A450.

B5: Fab m101 (Fab, V domains shown)
VH: QVQLVQSGAEVKKPGASVKVSCKASGGTFSSYAISWVRQAPGQGLEWMGGIIPIFGTANYAQKFQGRVTITADESTSTAYMELSSLRSGDTAVYYCARDPGGYSYGPYYYYYGMDVWGQGTTVTVSS
VL: DIQMTQSPSSVSASVGDRVTITCRASQGIGPWLAWYQQKPGKAPKFLIYRASTLQSGVPSRFSGSGSGTDFTLTISSLQPEDFATYYCQQAHSFPFTFGPGTKVDIKR
As for B5, the “IC50 of HeV Env-mediated cell fusion, reporter gene assay, PCI-13 target cells” value in test [2] is 38 µg/mL. Also, the A450 in test [1] was found to be 1 A450. In test [3], this molecule registered a Kd of 28 nM, a koff of 0.0035 s⁻¹ and a kon of 130000 M⁻¹ s⁻¹.

B6: IgG1 m101 (antibody, V domains shown)
VH: QVQLVQSGAEVKKPGASVKVSCKASGGTFSSYAISWVRQAPGQGLEWMGGIIPIFGTANYAQKFQGRVTITADESTSTAYMELSSLRSGDTAVYYCARDPGGYSYGPYYYYYGMDVWGQGTTVTVSS
VL: DIQMTQSPSSVSASVGDRVTITCRASQGIGPWLAWYQQKPGKAPKFLIYRASTLQSGVPSRFSGSGSGTDFTLTISSLQPEDFATYYCQQAHSFPFTFGPGTKVDIKR
In the case of B6, in test [2], the “IC50 of HeV Env-mediated cell fusion, reporter gene assay, PCI-13 target cells” value came to 1.2 µg/mL.

B7: Fab m104 (Fab, V domains shown)
VH: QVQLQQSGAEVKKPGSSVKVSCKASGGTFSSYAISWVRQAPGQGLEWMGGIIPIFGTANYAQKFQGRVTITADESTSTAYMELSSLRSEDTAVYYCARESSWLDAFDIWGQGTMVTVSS
VL: DVVMTQSPLSLSVTAGEPASISCRSSQSLLHSNGHIYLDWYLQKPGQSPQLLIYMASNRASGVPDRFSGSGSGTDFTLRINRVETEDVGIYYCMQSLHTTRTFGQGTKVEIKR
In turn, B7 had an A450 in test [1] of 0.7 A450. In test [3], this molecule registered a Kd of 600 nM, a koff of 0.0016 s⁻¹ and a kon of 3000 M⁻¹ s⁻¹.

B8: Fab m117 (Fab, V domains shown)
VH: QITLKESGPTLVKPTQTLTLTCTFSGFSLSTSGVGVGWIRQPPGKALEWLALIYWDDDKRYSPSLKSRLTITKDTSKNQVVLTMTNMDPVDTATYYCAHRESGPEFFQHWGQGTLVTVSS
VL: DVVMTQSPLSLPVTLGQPASISCNSSQSLVYSNGITYLNWFHQRPGQSPRRLIYQVSNWDSEVPDRFSGSGSATDFTLKISRVEADDVGIYYCMQGTHWPPTFGQGTRLEIKR
The molecule B8 returned an A450 in test [1] of 0 A450.

B9: Fab m105 (Fab, V domains shown)
VH: QVQLVQSGGGVVQPGRSLRLSCAASGFTFSSYAMHWVRQAPGKGLEWVAVISYDGSNKYYADSVKGRFTISRDNSKNTLYLQMNSLRAEDTAVYYCARVGGITGTADAFDIWGQGTMVTVSS
VL: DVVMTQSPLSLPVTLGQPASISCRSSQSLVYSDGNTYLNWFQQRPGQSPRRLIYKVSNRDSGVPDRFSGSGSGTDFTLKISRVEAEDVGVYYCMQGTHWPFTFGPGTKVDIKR
Consider B9, for which the A450 in test [1] amounted to 0.9 A450. In test [3], this molecule showed a Kd of 69 nM, an off-rate (koff) of 0.0051 s⁻¹ and a kon of 74000 M⁻¹ s⁻¹.

B10: Fab m111 (Fab, V domains shown)
VH: QVQLVQSGAEVKKPGATVKISCKVSGYTFTDYYMHWVQQAPGKGLEWMGLVDPEDGETIYAEKFQGRVTITADTSTDTAYMELSSLRSEDTAVYYCATEGADYWGQGTLVTVSS
VL: DVVMTQSPLSLPVALGQPASISCRSSQSLVHSDGNTYLNWFQQRPGQSPRRLLYKVSNRESGVPDRFSGSGSGSDFTLKISRVEAEDVGIYYCMQGTHWPPITFGQGTRLEIKR
In test [1], B10 had an A450 of 0 A450.

B11: Fab m112 (Fab, V domains shown)
VH: QVQLVQSGAEVKKPGATVKISCKVSGYTFTDYYMHWVQQAPGKGLEWMGLVDPEDGETIYAQKFQGRVTITADTSTNTAYMELSSLRSEDTAVYYCATDGADYWDQGTLGTVST
VL: QSVLTQPPSVSGAPGQTVTISCTGSSSNIGGDSDVHWYQQLPGSAPKLLIYGNRNRPSGVPDRFSGSRSGTSASLAVIGVQADDEADYYCQCYDSSLNGYVFGPGTKVIVL
The molecule B11 displayed an A450 in test [1] of 0.4 A450.

B12: Fab m108 (Fab, V domains shown)
VH: EVQLVESGGGLVKPGGSLRLSCAASGFTFSDYYMSWIRQAPGKGLEWVSYISSSGSTIYYADSVKGRFTISRDNAKNSLYLQMNSLRAEDTAVYYCARVGGAFDIWGQGTMVTVSS
VL: NFMLTQPHSVSGSPGKTVTISCTRSSGSIASNYVQWYRQSPGSAPTTVIYEGYQRPSGVPDRFSGSIDSSSNSASLTISGLETEDEADYYCQSYDATNHQVVFGGGTKLTVL
For the molecule B12, the A450 in test [1] was determined as 0.5 A450.

B13: Fab m107 (Fab, V domains shown)
VH: EVQLVQSGAEVKKPGASVKVSCKASGYTFTGYYMHWVRQAPGQGLEWMGIINPSGGSTSYAQKFQGRVTMTRDTSTSTVYMELSSLRSEDTAVYYCARDHVHGPDAFDIWGQGTMVTVSS
VL: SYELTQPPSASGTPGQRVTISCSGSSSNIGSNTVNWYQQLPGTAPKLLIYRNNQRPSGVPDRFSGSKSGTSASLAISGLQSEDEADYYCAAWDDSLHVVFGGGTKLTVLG
As to B13, in test [1], the A450 amounted to 0.6 A450. In test [3], the Kd was found to be 78 nM, the koff turned out to be 0.0022 s⁻¹ and the kon is around 30000 M⁻¹ s⁻¹.

B14: Fab m106 (Fab, V domains shown)
VH: QVQLQQSGAEVKKPGSSVKVSCKASGGTFSSYAISWVRQAPGQGLEWMGGIIPIFGTANYAQKFQGRVTITADKSTSTAYMELSSLRSEDTAVYYCARDQLAGYYYDSSGYHYYYYGMDVWGQGTTVTVSS
VL: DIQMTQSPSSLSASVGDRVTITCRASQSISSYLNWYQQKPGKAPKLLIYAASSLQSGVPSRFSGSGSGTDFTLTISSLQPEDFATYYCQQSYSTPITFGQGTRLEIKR
In test [1], B14 came in with an A450 of 1.6 A450. In test [3], this molecule displayed a Kd of 54 nM, a koff of 0.0033 s⁻¹ and an association rate constant (kon) of 62000 M⁻¹ s⁻¹.

B15: Fab m113 (Fab, V domains shown)
VH: QVQLQQSGAEVKKPGSSVKVSCKASGGTFSSYAISWVRQAPGQGLEWMGWTNPNSGGTNYAQKLQGRVTMTTDTSTSTAYMELRSLRSDDTAVYYCANYKLQSDAFDIWGQGTMVTVSS
VL: DIQMTQSPSSLSASVGDRVTITCRASQDIGNFLVWFQQKPGKAPKSLIYAASRLQSGVPSRFSGSGSGTDFTLTISSLQPEDFATYYCQHYKSYPLTFGGGTKVEIKR
B15 displayed an A450 in test [1] of 0.1 A450.

B16: Fab m103 (Fab, V domains shown)
VH: EVQLVESGGGLIQPGGSLRLSCAASGFTVSSNYMSWVRQAPGKGLEWVSVIYSGGSTYYADSVKGRFTISRDNSKNTLYLQMNSLRAEDTAVYYCARDSRYHDAFDIWGQGTMVTVSS
VL: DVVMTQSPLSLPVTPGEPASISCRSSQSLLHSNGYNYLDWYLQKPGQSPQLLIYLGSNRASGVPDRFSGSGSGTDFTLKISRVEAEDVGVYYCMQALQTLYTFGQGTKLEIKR
As for B16, the Kd in test [4] came out at 1800 nM; in test [5], 1000 nM. For the same molecule, in test [1], the A450 stood at 0.8 A450.

The values above are taken from US20090214428A1 (HENRY M JACKSON FOUNDATION FOR THE ADVANCEMENT OF MILITARY …, published 2009).
